# Experimental data reported in US20080096187A1.
# Legend:
# Assay in all cases: cell-based or functional assay
# [1] = molecular target: HIV-1 YU2 envelope glycoprotein (HIV-1 YU2) (UniProt P35961)
# [2] = molecular target: HIV-2 7312A envelope glycoprotein (HIV-2 isolate 7312A)
# [3] = molecular target: HIV-2 7312A envelope glycoprotein with substitutions 660 (K to A), 662 (N to D), 663 (S to K) and 665 (D to A) (HIV-2 isolate 7312A)
# [4] = molecular target: HIV-2 UC-1 envelope glycoprotein (HIV-2 UC1) (UniProt Q76638)
# [5] = molecular target: HIV-2 7312A envelope glycoprotein with substitutions 675 (L to I) and 676 (A to T) (HIV-2 isolate 7312A)
# [6] = molecular target: HIV-2 ST envelope glycoprotein (HIV-2 ST) (UniProt P20872)
# [7] = molecular target: HIV-2 7312A/H419R envelope glycoprotein (HIV-2 isolate 7312A)
# [8] = molecular target: HIV-2 7312A/Q422L envelope glycoprotein (HIV-2 isolate 7312A)
# [9] = molecular target: HIV-2 7312A/V434M envelope glycoprotein (HIV-2 isolate 7312A)
substance,measurement,setting,value
2F5 (antibody),IC50 (neutralization),[1],25 µg/mL
same,IC50 (neutralization),[2],> 50 µg/mL
same,IC50 (neutralization) in the absence of sCD4,[2],> 25 µg/mL
same,IC50 (neutralization) in the presence of sCD4,[2],> 25 µg/mL
same,IC50 (neutralization),[3],< 0.1 µg/mL
same,IC50 (neutralization) in the absence of sCD4,[4],> 25 µg/mL
same,IC50 (neutralization) in the presence of sCD4,[4],> 25 µg/mL
2G12 (antibody),IC50 (neutralization) in the absence of sCD4,[2],> 25 µg/mL
same,IC50 (neutralization) in the presence of sCD4,[2],> 25 µg/mL
same,IC50 (neutralization) in the absence of sCD4,[4],> 25 µg/mL
same,IC50 (neutralization) in the presence of sCD4,[4],> 25 µg/mL
4E10 (antibody),IC50 (neutralization),[1],25 µg/mL
same,IC50 (neutralization),[2],> 50 µg/mL
same,IC50 (neutralization),[5],0.8 µg/mL
same,IC50 (neutralization),[6],0.1 µg/mL
same,IC50 (neutralization),[4],1.2 µg/mL
A32 (antibody),IC50 (neutralization) in the absence of sCD4,[2],> 25 µg/mL
same,IC50 (neutralization) in the presence of sCD4,[2],> 25 µg/mL
same,IC50 (neutralization) in the absence of sCD4,[4],> 25 µg/mL
same,IC50 (neutralization) in the presence of sCD4,[4],> 25 µg/mL
E51 (antibody),IC50 (neutralization) in the absence of sCD4,[2],> 25 µg/mL
same,IC50 (neutralization) in the presence of sCD4,[2],> 25 µg/mL
same,IC50 (neutralization) in the absence of sCD4,[7],> 25 µg/mL
same,IC50 (neutralization) in the presence of sCD4,[7],22 µg/mL
same,IC50 (neutralization) in the absence of sCD4,[8],> 25 µg/mL
same,IC50 (neutralization) in the presence of sCD4,[8],> 25 µg/mL
same,IC50 (neutralization) in the absence of sCD4,[9],> 25 µg/mL
same,IC50 (neutralization) in the presence of sCD4,[9],4 µg/mL
same,IC50 (neutralization) in the absence of sCD4,[4],> 25 µg/mL
same,IC50 (neutralization) in the presence of sCD4,[4],13 µg/mL
ED47 (antibody),IC50 (neutralization) in the absence of sCD4,[2],> 25 µg/mL
same,IC50 (neutralization) in the presence of sCD4,[2],> 25 µg/mL
same,IC50 (neutralization) in the absence of sCD4,[7],> 25 µg/mL
same,IC50 (neutralization) in the presence of sCD4,[7],4.7 µg/mL
same,IC50 (neutralization) in the absence of sCD4,[8],> 25 µg/mL
same,IC50 (neutralization) in the presence of sCD4,[8],> 25 µg/mL
same,IC50 (neutralization) in the absence of sCD4,[9],> 25 µg/mL
same,IC50 (neutralization) in the presence of sCD4,[9],> 25 µg/mL
same,IC50 (neutralization) in the absence of sCD4,[4],> 25 µg/mL
same,IC50 (neutralization) in the presence of sCD4,[4],> 25 µg/mL
ED49 (antibody),IC50 (neutralization) in the absence of sCD4,[2],> 25 µg/mL
same,IC50 (neutralization) in the presence of sCD4,[2],5.4 µg/mL
same,IC50 (neutralization) in the absence of sCD4,[7],> 25 µg/mL
same,IC50 (neutralization) in the presence of sCD4,[7],3.3 µg/mL
same,IC50 (neutralization) in the absence of sCD4,[8],> 25 µg/mL
same,IC50 (neutralization) in the presence of sCD4,[8],3 µg/mL
same,IC50 (neutralization) in the absence of sCD4,[9],> 25 µg/mL
same,IC50 (neutralization) in the presence of sCD4,[9],2.4 µg/mL
same,IC50 (neutralization) in the absence of sCD4,[4],> 25 µg/mL
same,IC50 (neutralization) in the presence of sCD4,[4],12 µg/mL
F105 (antibody),IC50 (neutralization) in the absence of sCD4,[2],> 25 µg/mL
same,IC50 (neutralization) in the presence of sCD4,[2],> 25 µg/mL
same,IC50 (neutralization) in the absence of sCD4,[4],> 25 µg/mL
same,IC50 (neutralization) in the presence of sCD4,[4],> 25 µg/mL
X5 (antibody),IC50 (neutralization) in the absence of sCD4,[2],> 25 µg/mL
same,IC50 (neutralization) in the presence of sCD4,[2],> 25 µg/mL
same,IC50 (neutralization) in the absence of sCD4,[7],> 25 µg/mL
same,IC50 (neutralization) in the presence of sCD4,[7],> 25 µg/mL
same,IC50 (neutralization) in the absence of sCD4,[8],> 25 µg/mL
same,IC50 (neutralization) in the presence of sCD4,[8],> 25 µg/mL
same,IC50 (neutralization) in the absence of sCD4,[9],> 25 µg/mL
same,IC50 (neutralization) in the presence of sCD4,[9],2.5 µg/mL
same,IC50 (neutralization) in the absence of sCD4,[4],> 25 µg/mL
same,IC50 (neutralization) in the presence of sCD4,[4],> 25 µg/mL
b12 (antibody),IC50 (neutralization),[1],3 µg/mL
same,IC50 (neutralization),[2],> 50 µg/mL
same,IC50 (neutralization) in the absence of sCD4,[2],> 25 µg/mL
same,IC50 (neutralization) in the presence of sCD4,[2],> 25 µg/mL
same,IC50 (neutralization) in the absence of sCD4,[4],> 25 µg/mL
same,IC50 (neutralization) in the presence of sCD4,[4],> 25 µg/mL
